The values that follow come from patent US20230365705A1 (DYNAMICURE BIOTECHNOLOGY, published 2023).

Positions count from the first letter of the chain named.

T1: Human CD93 on cells (human CD93 expressing CHO cells; HUVEC, U937 and KG1a cells) (human, UniProt Q9NPY3 22-652)
T1 construct: whole, on cells; also called hCD93 expressing CHO cells; hCD93 CHO cells
T1 sequence (looked up): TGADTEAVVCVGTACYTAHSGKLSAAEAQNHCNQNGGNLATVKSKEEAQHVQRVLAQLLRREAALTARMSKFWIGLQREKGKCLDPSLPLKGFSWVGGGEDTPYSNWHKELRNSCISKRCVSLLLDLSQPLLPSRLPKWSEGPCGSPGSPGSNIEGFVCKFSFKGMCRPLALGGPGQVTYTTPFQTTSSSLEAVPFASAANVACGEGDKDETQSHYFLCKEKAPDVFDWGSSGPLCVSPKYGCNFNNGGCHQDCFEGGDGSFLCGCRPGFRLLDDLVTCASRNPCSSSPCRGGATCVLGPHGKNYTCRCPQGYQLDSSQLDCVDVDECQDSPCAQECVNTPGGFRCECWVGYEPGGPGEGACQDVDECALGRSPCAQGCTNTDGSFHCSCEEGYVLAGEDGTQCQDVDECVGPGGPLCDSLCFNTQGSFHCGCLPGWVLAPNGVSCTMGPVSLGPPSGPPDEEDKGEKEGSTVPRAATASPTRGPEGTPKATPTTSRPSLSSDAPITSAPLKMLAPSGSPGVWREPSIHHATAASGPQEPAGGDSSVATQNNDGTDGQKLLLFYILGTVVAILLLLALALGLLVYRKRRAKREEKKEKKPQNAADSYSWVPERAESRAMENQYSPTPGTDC

T2: Human CD93 recombinant protein (Sino Biological Inc, Catalog #12589-H08H) (human, UniProt Q9NPY3 22-580)
T2 construct: Biotinylated (EZ-LINK NHS-PEG4 biotin) in the BLI assays; also called hCD93; His-tagged human CD93
T2 sequence (looked up): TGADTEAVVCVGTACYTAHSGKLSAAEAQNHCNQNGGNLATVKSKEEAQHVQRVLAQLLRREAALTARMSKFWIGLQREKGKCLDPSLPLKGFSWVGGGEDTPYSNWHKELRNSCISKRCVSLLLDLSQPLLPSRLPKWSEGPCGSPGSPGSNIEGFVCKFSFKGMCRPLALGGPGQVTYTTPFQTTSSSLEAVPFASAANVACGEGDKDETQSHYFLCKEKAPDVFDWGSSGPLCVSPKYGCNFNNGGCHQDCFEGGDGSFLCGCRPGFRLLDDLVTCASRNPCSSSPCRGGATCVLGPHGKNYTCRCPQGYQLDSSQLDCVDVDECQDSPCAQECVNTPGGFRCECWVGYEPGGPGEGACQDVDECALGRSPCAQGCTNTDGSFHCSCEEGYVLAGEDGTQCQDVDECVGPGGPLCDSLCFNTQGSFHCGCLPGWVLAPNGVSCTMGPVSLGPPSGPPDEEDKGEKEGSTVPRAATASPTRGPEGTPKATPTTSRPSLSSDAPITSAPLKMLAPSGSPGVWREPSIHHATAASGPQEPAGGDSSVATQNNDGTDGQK

B1: 19E12 (antibody, V domains shown)
VH: QVQLQQSGAELVRPGASVKLSCKASGYTFTDYEMHWVRQTPVHGLEWIGGIDPETGGTAYNQKFKGKATLTADKSSSTAYMELRSLTSEDSAVYYCTRGAWFAYWGQGTLVTVSA
VL: QAVVTQESALTTSPGETVTLTCRSSTGAVTTSNSANWVQEKPDHLFTGLIGGTNNRAPGVPARFSGSLIGDKAALTITGAQTEDEAIYFCALWYNNHFVFGGGTKLTVL
notes: Mouse hybridoma monoclonal antibody
B2: 16B6 (antibody, V domains shown)
VH: QVQLQQSGPELVKPGASVKISCKASGYAFSRSWMNWVKQRPGKGLEWIGWIYPGDGDTNYNGKFKGKATLTADKSSSTAYMQLSSLTSEDSAAYFCARSATLPYWYFDVWGAGTTVTVSS
VL: DIKMTQSPSSMYASLGERVTITCKASQDIKSYLSWYQQKPWKSPKTLIYYATNLADGVPSRFSGSGSGQDYSLTISSLGSDDTATYYCLQHVESPWTFGGGTKLEIK
notes: as for B1
B3: 5H9 (antibody, IgG2a, V domains shown)
VH: QVQLQQSGPDLVKPGASVKISCKASGYAFSTYWMNWVKQRPGKGLEWIGRIFPGDGDANYNGKFKGKATLTADKSSSTAYMQLSSLTSEDSAVYFCTRTGAAYDFDPFPYWGQGTLVTVSA
VL: DIVMTQAAFSNPVTLGTSASISCSSSKSLLHSNGVTYLYWYLQRPGQSPQLLIYRMSNLASGVPDRFSGSGSGTDFTLRISRVEAEDVGIYYCAQMLERPFTFGSGTKLEIK
notes: also called 5H9 mIgG2a
B4: 17A7 (antibody, V domains shown)
VH: B3 VH with D10E, A24G, A58T, N59D, N61D, S77N, T97A, D104E
VL: B3 VL with S26T, N33S, V35I, I90V
notes: as for B1
B5: 16G9 (antibody, V domains shown)
VH: EVQLQQSGPELVKPGASVKMSCKASGYTFTDYYMNWVKQSHGKSLEWIGRVNPNNGGKTYNQKFKGKATLTVDKSLSTAYMQLNSLTSEDSAVYYCARWRLRPVDYGMDYWGQGTSVTVSS
VL: DIVLTQSPASLAVSLGQRATISCRASQSVSTSSYSYMHWYQQKPGQPPKLLIKYASNLESGVPARFSGSGSGTDFTLNIHPVEEEDTATYYCQHSWEIPFTFGSGTKLEIK
notes: as for B1
B6: 17E6 (antibody, V domains shown)
VH: EVQLQQSGPELVKPGASVKMSCKASGYTFTSYVIHWVKQKPGQGLEWIGYINPYSDYTQYNEKFKGKATLTSDKSSSTAYMELSSLTSEDSAVYSCARRADGNPYAMDYWGQGTSVTVSS
VL: DIVMTQSHKFMSTSVGDRVSTTCKASQDVSTAVVWYQQKPGQSPKLLIYSASYRYTGVPDRFTGSGSGTDFTFTITSVQAEDLAVYYCQQHYSTPFTFGSGTKLEIK
notes: as for B1
B7: 20C7 (antibody, V domains shown)
VH: B6 VH with K13N, S31A, I34M, N52F, S55N, Y57G, Q59E, S95Y, A100T, A106T
VL: B6 VL with T21I, V34A, Y49H, S65R, T76S
notes: as for B1
B8: 12H4 (antibody, V domains shown)
VH: EVQLQQSGPELVKPGASVKVSCKASGYTFTDYYIHWVKQRPGQGLEWIGEIYPGSDDAYYNEKFKGKATLTADKSSSTAYMQLSSLTSEDSAVYFCTRETTATAYWGQGTLVTVSA
VL: QIVLTQSPAIMSASPGEKVTITCSASSSVSLIYWFQQKPGTSPKLWIYSTSNLASGVPARFSGSGSGTSYSLTISRMEAEDAATYYCQQRSGYPPTFGGGTKLEIK
notes: as for B1
B9: 19B5 (antibody, V domains shown)
VH: DVNLVESGGGLVKLGGSLKLSCAASGFTFSNYYMSWVRQSPEKRLEWVATISNNGDSTYYLDTVKGRFTISRDSAENTLYLQMSSLISEDTAVYYCTRVGTGFTYWGQGTLVTVSA
VL: DIVLTQSPATLSVTPGDSVSLSCRASQSINNYLHWYQQRSHESPRLLIKFASQSISDIPSRFSGSGSGTDFTLSINSIETEDFGMYFCQQSNSWPLTFGAGTKLELK
notes: as for B1
B10: humanized 17B10 H1L1 (antibody, mouse IgG1, V domains shown)
VH: QVQLVQSGAEVKKPGSSVKVSCKASGYAFSSYWLNWVRQAPGQGLEWFGRIYPGDGDTDYNGKFKGRVTLTADKSTSTAYMELSSLRSEDTAVYFCVRGDGYWAMDYWGQGTTVTVSS
VL: DIVMTQSPLSLPVTPGEPASISCRFSQSLLHSNGITYLYWYLQKPGQSPQLLIYQMSNLASGVPDRFSGSGSGTDFTLKISRVEAEDVGVYYCAQNLELPWTFGGGTKLEIK
notes: Chimeric Fc: human CH1, mouse IgG1 CH2 and CH3
B11: humanized 17B10 H3L1 (antibody, mouse IgG1, V domains shown)
VH: QVQLVQSGPEVKKPGESLKISCKASGYAFSSYWLNWVRQMPGKGLEWMGRIYPGDGDTDYNGKFKGQVTISADKSSGTAYLQLSSLKASDTAVYFCVRGDGYWAMDYWGQGTLVTVSS
VL: B10 VL
notes: as for B10
B12: humanized 17B10 H2L3 (antibody, mouse IgG1, V domains shown)
VH: QVQLVQSGAEVVKSGASVKVSCKASGYAFSSYWLNWVRQAPGQGLEWFGRIYPGDGDTDYNGKFKGRVTLIRDTSTSTVYMELTSLTSEDTAVYYCVRGDGYWAMDYWGQGTLVTVSS
VL: DIVMTQSPDSLAVSLGERATINCRFSKSLLHSNGITYLYWYQQKPGQPPKLLIYQMSNLASGVPDRFSGSGSGTDFTLTISSLQAEDVAVYYCAQNLELPWTFGGGTKLEIK
notes: as for B10
B13: humanized 17B10 H1L2 (antibody, mouse IgG1, V domains shown)
VH: B10 VH
VL: B10 VL with S7T, Q55T
notes: as for B10
B14: humanized 17B10 H1L3 (antibody, mouse IgG1, V domains shown)
VH: B10 VH
VL: B12 VL
notes: as for B10
B15: humanized 17B10 H2L1 (antibody, mouse IgG1, V domains shown)
VH: B12 VH
VL: B10 VL
notes: as for B10

The target of the first assay is T1, Human CD93 on cells (human CD93 …). Kind of assay: flow cytometry, CD93 expressing CHO cells, antibody 10 ug/ml, FITC-A. The procedure: Human CD93 expressing CHO cells were detached by incubation with TrypLE reagents (Thermos Fisher), which preserves the integrity of CD93 on the cell surface. […] After washing with FACS buffer twice, the samples were acquired in NovoCyte Flow Cytometer and analyzed by NovoExpress software.
A general note: Flow cytometry measures light scatter and fluorescence of single cells or particles in a stream.
Consider B1, for which the binding result is “binds”.
Same read-out and setting: as for B2, the entry is “binds”; as for B3, “binds”; as for B4, “binds”.
Consider B5, for which the binding result is “binds”.
The same measure, in the same setting: as for B6, the entry is “binds”.
The same measure, in the same setting: as for B7, the entry is “binds”.
On the same count and under the same terms, as for B8, the entry is “binds”; as for B9, “binds”.

The target in the next assay is T2, Human CD93 recombinant protein (Sino …). Kind of assay: BLI (Octet QKe), biotinylated human CD93 on streptavidin biosensors. The procedure: The binding affinity of anti-CD93 antibodies were determined with bio-layer interferometry using Octet QKe (Fortebio). Human CD93 recombinant protein (Sino Biological Inc, Catalog #12589-H08H) or cynomolgus CD93 protein (made in-house) were biotinylated using EZ-LINK NHS-PEG4 biotin (Thermo Fisher Scientific). Streptavidin biosensors (Fortebio) were used to load biotinylated CD93 protein (300 seconds in 5 μg/ml). The baseline was stabilized for 60 seconds in 1× kinetics buffer (Fortebio) before anti-CD93 antibodies at a serial dilution were allowed to associate for 300 seconds with captured protein. Then the sensors were dissociated in 1× kinetics buffer for 600 seconds.
On the technique in general: In BLI a coated tip is dipped into the sample, and binding shifts an interference pattern.
For B1, the binding result is “binds”.
Take B2: the binding result is listed as “binds”.
As to B3, the binding result is given as “binds”.
Still for that read-out and setting: in the case of B4 it was “binds”; in that of B5, “binds”; in that of B6, “binds”.
On the same count and under the same terms, as for B7, the entry is “binds”.
Still for that read-out and setting: in the case of B8 it was “binds”; in that of B9, “binds”.

A further assay deals with T1, Human CD93 on cells (human CD93 …). In words: flow cytometry, CHO cells overexpressing human CD93, antibody 0.01ug, mIgG1 as control, APC-A.
For the molecule B10, the “M2 gate, % of cells” value came to 99%.
Same read-out and setting: as for B11, the figure is 99.5%.
On the same count and under the same terms, as for B12, the figure is 99.2%.
Still for that read-out and setting: as for B13, the figure is 92.1%.

The next assay has the same target. The assay is described as above. The source holds these as a separate data set.
With B14, the “M2 gate, % of cells” value was found to be 99.2%.
Same read-out and setting: in the case of B15 it was 98.2%.
